From the supplement of paper PMC10065799, “High-throughput profiling of sequence recognition by tyrosine kinases and SH2 domains using bacterial peptide display” (eLife, 2023)

Assays:
c-Src SH2 = test: SH2 binding enrichment of the phosphorylated peptide, bacterial display (enrichment ratio); higher = better substrate or ligand; peptides without Tyr show the background
SHP2-C SH2 = test: as above
Grb2 SH2 = Grb2 SH2 (UniProt P62993); test: as above
EPHB1 = EPHB1 (UniProt P54762); test: phosphorylation enrichment, bacterial display (enrichment ratio); higher = better substrate or ligand; peptides without Tyr show the background
Chain of EPHB1 (P54762 whole entry, looked up): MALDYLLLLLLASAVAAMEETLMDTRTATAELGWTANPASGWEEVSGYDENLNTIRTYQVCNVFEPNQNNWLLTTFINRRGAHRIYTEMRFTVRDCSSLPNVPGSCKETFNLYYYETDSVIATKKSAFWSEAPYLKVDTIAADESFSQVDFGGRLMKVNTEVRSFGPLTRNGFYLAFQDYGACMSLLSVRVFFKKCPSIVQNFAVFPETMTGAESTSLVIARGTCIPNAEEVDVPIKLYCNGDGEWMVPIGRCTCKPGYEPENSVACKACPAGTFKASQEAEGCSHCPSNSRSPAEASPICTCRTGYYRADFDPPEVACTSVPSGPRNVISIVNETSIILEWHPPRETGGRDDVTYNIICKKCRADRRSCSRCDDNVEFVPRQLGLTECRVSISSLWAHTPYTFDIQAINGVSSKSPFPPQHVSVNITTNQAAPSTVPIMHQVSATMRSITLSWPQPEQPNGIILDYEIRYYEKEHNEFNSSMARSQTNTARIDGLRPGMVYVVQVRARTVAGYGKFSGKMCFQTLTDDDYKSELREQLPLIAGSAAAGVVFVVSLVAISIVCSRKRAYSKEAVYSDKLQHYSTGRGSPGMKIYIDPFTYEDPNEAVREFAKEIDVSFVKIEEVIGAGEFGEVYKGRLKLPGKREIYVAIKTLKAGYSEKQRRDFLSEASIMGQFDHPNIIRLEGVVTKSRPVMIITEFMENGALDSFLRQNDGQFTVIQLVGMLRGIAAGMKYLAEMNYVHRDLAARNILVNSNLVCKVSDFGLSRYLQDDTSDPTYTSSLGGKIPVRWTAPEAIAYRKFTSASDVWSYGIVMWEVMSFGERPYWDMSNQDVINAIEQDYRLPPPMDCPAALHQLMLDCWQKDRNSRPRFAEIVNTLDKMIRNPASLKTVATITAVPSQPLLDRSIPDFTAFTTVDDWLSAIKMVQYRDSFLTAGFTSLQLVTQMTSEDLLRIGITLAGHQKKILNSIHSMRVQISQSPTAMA

EPHB2 = EPHB2 (UniProt P29323); test: as above
Chain of EPHB2 (P29323 whole entry, looked up): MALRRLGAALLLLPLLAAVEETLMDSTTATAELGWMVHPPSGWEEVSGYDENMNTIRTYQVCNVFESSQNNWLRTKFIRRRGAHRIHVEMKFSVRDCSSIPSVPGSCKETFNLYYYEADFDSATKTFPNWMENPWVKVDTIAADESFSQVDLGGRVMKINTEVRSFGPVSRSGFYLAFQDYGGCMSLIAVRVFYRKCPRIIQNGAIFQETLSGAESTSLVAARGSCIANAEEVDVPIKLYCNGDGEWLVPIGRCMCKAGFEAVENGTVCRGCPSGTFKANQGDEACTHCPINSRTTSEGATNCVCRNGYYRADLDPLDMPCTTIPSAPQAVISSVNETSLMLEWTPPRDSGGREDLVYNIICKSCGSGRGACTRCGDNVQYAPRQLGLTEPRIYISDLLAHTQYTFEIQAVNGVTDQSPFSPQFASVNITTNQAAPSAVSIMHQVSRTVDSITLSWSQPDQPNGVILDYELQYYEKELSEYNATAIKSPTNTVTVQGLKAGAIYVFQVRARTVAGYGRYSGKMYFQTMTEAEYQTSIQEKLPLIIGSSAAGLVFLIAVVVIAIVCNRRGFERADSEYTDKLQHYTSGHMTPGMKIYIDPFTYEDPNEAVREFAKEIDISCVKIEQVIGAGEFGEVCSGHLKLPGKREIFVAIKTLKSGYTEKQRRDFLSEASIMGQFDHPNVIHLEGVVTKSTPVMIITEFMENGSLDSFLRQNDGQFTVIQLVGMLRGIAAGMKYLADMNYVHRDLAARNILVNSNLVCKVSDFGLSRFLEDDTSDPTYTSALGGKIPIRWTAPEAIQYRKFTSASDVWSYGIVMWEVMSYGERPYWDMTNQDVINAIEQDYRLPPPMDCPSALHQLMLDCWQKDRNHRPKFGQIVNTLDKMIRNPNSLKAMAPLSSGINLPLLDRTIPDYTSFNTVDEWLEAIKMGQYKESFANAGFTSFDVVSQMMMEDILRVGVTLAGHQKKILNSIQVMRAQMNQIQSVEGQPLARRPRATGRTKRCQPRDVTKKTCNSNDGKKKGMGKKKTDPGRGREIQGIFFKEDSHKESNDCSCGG

MERTK = MERTK (UniProt Q12866); test: as above
Chain of MERTK (Q12866 whole entry, looked up): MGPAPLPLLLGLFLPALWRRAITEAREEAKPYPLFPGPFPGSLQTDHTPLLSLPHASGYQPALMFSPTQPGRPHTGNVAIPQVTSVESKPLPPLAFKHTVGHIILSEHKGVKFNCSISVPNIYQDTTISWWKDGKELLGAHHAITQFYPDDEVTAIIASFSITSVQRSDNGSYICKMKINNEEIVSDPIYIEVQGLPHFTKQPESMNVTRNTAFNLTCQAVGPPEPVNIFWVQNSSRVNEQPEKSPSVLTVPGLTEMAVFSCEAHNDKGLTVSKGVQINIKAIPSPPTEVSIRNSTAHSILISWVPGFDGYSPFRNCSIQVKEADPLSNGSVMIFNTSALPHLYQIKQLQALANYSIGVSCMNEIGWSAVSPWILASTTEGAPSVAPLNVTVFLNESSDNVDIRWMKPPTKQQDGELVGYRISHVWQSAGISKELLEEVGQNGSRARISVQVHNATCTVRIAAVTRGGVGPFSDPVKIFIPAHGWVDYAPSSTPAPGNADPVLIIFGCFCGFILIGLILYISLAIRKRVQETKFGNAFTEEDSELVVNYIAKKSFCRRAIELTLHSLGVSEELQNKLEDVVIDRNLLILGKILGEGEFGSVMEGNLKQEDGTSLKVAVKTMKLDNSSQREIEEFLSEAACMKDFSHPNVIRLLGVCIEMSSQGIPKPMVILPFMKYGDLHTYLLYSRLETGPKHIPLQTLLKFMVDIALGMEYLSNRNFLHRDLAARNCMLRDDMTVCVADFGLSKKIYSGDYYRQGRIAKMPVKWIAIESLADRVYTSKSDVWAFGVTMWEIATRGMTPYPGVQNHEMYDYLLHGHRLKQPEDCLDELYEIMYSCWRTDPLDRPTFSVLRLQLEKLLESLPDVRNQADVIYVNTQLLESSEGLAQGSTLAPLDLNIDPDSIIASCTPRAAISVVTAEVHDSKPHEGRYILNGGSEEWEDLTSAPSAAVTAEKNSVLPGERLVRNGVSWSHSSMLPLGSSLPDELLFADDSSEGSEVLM

Hck = Hck (UniProt P08631); test: as above
Chain of Hck (P08631 whole entry, looked up): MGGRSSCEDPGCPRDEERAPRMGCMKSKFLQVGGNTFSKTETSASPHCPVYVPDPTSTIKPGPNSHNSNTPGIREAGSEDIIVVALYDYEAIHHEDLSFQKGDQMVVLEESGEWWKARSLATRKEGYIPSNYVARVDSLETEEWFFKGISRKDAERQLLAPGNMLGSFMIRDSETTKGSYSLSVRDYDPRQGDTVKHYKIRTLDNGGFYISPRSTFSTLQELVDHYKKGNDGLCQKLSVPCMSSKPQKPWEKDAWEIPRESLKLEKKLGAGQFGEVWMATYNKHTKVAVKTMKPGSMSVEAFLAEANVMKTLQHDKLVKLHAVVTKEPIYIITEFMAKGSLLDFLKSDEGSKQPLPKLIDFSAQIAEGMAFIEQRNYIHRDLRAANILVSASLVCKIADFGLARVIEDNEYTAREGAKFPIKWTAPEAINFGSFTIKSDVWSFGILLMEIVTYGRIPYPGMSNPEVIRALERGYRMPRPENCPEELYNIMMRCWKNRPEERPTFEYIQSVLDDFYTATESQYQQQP

Fyn = Fyn (UniProt P06241); test: as above
c-Src = test: as above
c-Abl (mouse) = test: as above
FGFR1 = FGFR1 (UniProt P11362); test: as above
Jak2 = Jak2 (UniProt O60674); test: as above
Fer (mouse) = test: as above
FGFR3 = FGFR3 (UniProt P22607); test: as above
Chain of FGFR3 (P22607 whole entry, looked up): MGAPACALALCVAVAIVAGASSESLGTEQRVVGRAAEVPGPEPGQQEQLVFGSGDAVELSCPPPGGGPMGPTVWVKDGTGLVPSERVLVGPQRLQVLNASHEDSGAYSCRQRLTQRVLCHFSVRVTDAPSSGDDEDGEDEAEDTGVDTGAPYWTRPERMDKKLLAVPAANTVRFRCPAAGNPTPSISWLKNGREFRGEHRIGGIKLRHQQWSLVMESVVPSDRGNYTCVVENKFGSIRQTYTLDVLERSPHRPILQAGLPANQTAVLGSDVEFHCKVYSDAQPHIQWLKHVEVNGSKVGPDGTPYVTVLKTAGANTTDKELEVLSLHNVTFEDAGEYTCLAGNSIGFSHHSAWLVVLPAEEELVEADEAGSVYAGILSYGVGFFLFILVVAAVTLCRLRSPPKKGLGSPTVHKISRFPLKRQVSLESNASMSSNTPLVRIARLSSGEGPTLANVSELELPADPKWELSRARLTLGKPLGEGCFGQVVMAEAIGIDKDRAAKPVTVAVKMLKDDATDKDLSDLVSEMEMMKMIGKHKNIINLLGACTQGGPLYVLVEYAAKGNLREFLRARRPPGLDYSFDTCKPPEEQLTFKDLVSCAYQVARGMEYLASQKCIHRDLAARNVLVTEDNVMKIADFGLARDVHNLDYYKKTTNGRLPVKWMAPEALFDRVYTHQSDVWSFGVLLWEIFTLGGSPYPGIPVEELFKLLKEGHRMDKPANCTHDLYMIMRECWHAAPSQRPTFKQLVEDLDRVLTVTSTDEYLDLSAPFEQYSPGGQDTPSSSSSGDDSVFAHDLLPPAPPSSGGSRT

AncSZ = test: as above
Fes = Fes (UniProt P07332); test: as above
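For SH2 binding enrichment of the phosphorylated peptide, bacterial display in this document: peptide library displayed on the E. coli surface as eCPX fusions, selected cells deep-sequenced, score is each peptide's frequency after selection divided by its frequency in the input.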
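For phosphorylation enrichment, bacterial display in this document: 11-residue human phosphosite peptides and single-mutation variants displayed on the E. coli surface, counted by deep sequencing, each peptide's frequency after selection divided by its frequency in the unselected input library; frequency after pTyr selection over input frequency; kinase dosed for 20-30% of maximal phosphorylation in three min.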

Chain of Grb2 SH2 (P62993 whole entry, looked up): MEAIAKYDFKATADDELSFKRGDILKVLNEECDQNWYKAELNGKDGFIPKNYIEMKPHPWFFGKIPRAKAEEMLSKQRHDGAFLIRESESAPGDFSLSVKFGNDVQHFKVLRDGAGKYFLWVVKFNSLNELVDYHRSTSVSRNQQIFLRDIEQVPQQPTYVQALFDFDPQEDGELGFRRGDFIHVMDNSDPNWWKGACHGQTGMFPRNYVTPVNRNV

Row | Sequence | SH2 binding enrichment (c-Src SH2) | SH2 binding enrichment (SHP2-C SH2) | SH2 binding enrichment (Grb2 SH2) | phosphorylation enrichment (EPHB1) | phosphorylation enrichment (EPHB2) | phosphorylation enrichment (MERTK) | phosphorylation enrichment (Hck) | phosphorylation enrichment (Fyn) | phosphorylation enrichment (c-Src) | phosphorylation enrichment (c-Abl (mouse)) | phosphorylation enrichment (FGFR1) | phosphorylation enrichment (Jak2) | phosphorylation enrichment (Fer (mouse)) | phosphorylation enrichment (FGFR3) | phosphorylation enrichment (AncSZ) | phosphorylation enrichment (Fes)
1 | AAAAVYTFLPD [MYORG_Y36_M35V] | 1.92 | 0.79 | 0.882 | 3.68 | 2.45 | 9.47 | 6.52 | 8.32 | 7.02 | 1.12 | 12.4 | 0.979 | 1.85 | 10.6 | 1.48 | 1.2
2 | AAFNKYDQERF [CDC73_Y293_R292K_YF] | 0.44 | 0.776 | 0.867 | 0.401 | 0.483 | 0.396 | 0.375 | 0.485 | 0.414 | 0.494 | 0.412 | 0.599 | 0.428 | 0.531 | 0.692 | 0.785
3 | AALSAYAAQRP [PTPRN2_Y249] | 0.457 | 0.662 | 0.813 | 0.299 | 0.353 | 0.312 | 0.386 | 0.305 | 0.315 | 0.377 | 0.406 | 0.462 | 0.347 | 0.433 | 0.439 | 0.491
4 | AASTDYFKRGD [PDHA1_Y242_YF] | 0.416 | 0.68 | 0.879 | 0.372 | 0.454 | 0.325 | 0.45 | 0.462 | 0.352 | 0.421 | 0.402 | 0.57 | 0.363 | 0.426 | 0.625 | 0.663
5 | AATTAYSKPKR [MAP3K7_Y405] | 0.693 | 0.712 | 0.935 | 0.275 | 0.264 | 0.302 | 0.384 | 0.281 | 0.354 | 0.509 | 0.337 | 0.425 | 0.317 | 0.37 | 0.404 | 0.563
6 | AAVPAYDKIQV [STXBP2_Y401_R405Q] | 6.48 | 0.546 | 0.759 | 0.793 | 0.417 | 0.688 | 1.09 | 0.612 | 0.593 | 0.96 | 0.66 | 1.06 | 5.58 | 0.666 | 0.92 | 1.43
7 | ADDSFYTARSA [ZAP70_Y493_YF] | 0.419 | 1.55 | 0.883 | 0.597 | 0.534 | 0.681 | 1.01 | 0.711 | 0.707 | 0.561 | 0.55 | 0.877 | 0.451 | 0.904 | 0.822 | 0.993
8 | ADFPDCKFRPR [SOX11_Y116_Y116C_YF] | 1.19 | 0.996 | 1.05 | 0.488 | 0.409 | 0.391 | 0.545 | 0.395 | 0.465 | 0.744 | 0.532 | 0.965 | 0.412 | 0.616 | 0.783 | 0.983
9 | ADKSAYLMGPN [MYH7_Y386_L390P] | 0.482 | 0.729 | 0.766 | 0.386 | 0.391 | 0.408 | 0.508 | 0.544 | 0.631 | 0.441 | 0.473 | 0.7 | 0.371 | 0.545 | 0.636 | 0.637
10 | ADLAKYICENR [ALB_Y287_Q292R] | 0.424 | 0.79 | 0.817 | 0.537 | 0.406 | 0.45 | 0.447 | 0.427 | 0.467 | 1.36 | 0.469 | 0.928 | 0.498 | 0.691 | 0.84 | 0.946
11 | ADLTEYLSTHF [UQCRC1_Y219_YF] | 0.4 | 0.539 | 0.717 | 0.681 | 0.672 | 0.571 | 0.604 | 0.577 | 0.561 | 0.958 | 0.699 | 1.2 | 0.493 | 0.923 | 1.43 | 1.35
12 | AEARMYGVLPW [PLP1_Y207_D203E] | 0.46 | 0.871 | 0.769 | 0.692 | 1.05 | 1.54 | 7.47 | 7.15 | 4.81 | 0.989 | 0.502 | 0.65 | 0.477 | 0.559 | 0.767 | 0.811
13 | AEKPKYQINNI [TJP1_Y1602] | 0.508 | 0.766 | 0.906 | 0.366 | 0.802 | 0.349 | 0.366 | 0.341 | 0.363 | 0.548 | 0.383 | 0.704 | 0.368 | 0.427 | 0.541 | 0.682
14 | AEMKRYAESSS [RAI14_Y869] | 0.448 | 0.903 | 0.875 | 0.45 | 0.394 | 0.336 | 0.403 | 0.471 | 0.382 | 0.483 | 0.467 | 0.582 | 0.372 | 0.441 | 0.607 | 0.778
15 | AEMTGYVVTRW [MAPK13_Y182] | 0.47 | 0.586 | 0.845 | 0.636 | 0.586 | 0.372 | 0.467 | 0.468 | 0.486 | 0.895 | 0.526 | 1.34 | 0.499 | 0.834 | 1.17 | 1.3
16 | AEYGLYAAMVR [VSX2_Y222_G223A] | 0.485 | 0.574 | 0.82 | 8.53 | 9.84 | 6.46 | 7.14 | 6.68 | 4.7 | 3.28 | 0.639 | 1.16 | 5.05 | 0.895 | 1.65 | 1.4
17 | AFGEVYEGQES [ALK_Y1131_V1135E] | 0.557 | 0.677 | 0.842 | 0.526 | 0.622 | 0.438 | 0.629 | 0.598 | 0.75 | 0.842 | 0.485 | 1.14 | 0.478 | 0.645 | 1.32 | 1.05

Row | Sequence | SH2 binding enrichment (c-Src SH2) | SH2 binding enrichment (SHP2-C SH2) | SH2 binding enrichment (Grb2 SH2) | phosphorylation enrichment (EPHB1) | phosphorylation enrichment (EPHB2) | phosphorylation enrichment (MERTK) | phosphorylation enrichment (Hck) | phosphorylation enrichment (Fyn) | phosphorylation enrichment (c-Src) | phosphorylation enrichment (c-Abl (mouse)) | phosphorylation enrichment (FGFR1) | phosphorylation enrichment (Jak2) | phosphorylation enrichment (Fer (mouse)) | phosphorylation enrichment (FGFR3) | phosphorylation enrichment (AncSZ) | phosphorylation enrichment (Fes)
18 | AFGEVYEGQVS [ALK_Y1131] | 0.499 | 0.456 | 0.914 | 0.539 | 0.64 | 0.442 | 0.937 | 0.772 | 1.54 | 0.764 | 0.695 | 0.846 | 0.459 | 0.667 | 0.974 | 1.11
19 | AFLLLCFNDTH [BMP15_Y235_Y235C] | 0.704 | 1 | 1.01 | 0.724 | 0.696 | 0.484 | 0.561 | 0.563 | 0.413 | 1.01 | 0.501 | 1.63 | 0.663 | 0.918 | 1.42 | 1.44
20 | AGARMYGVLPW [PLP1_Y207_D203G] | 0.513 | 0.549 | 0.782 | 0.542 | 0.724 | 0.842 | 5.5 | 4.8 | 3.6 | 0.667 | 0.489 | 0.55 | 0.447 | 0.495 | 0.67 | 0.75
21 | AGREIYESEKC [TTN_Y4424_D4427E] | 0.844 | 1.09 | 1.15 | 0.427 | 0.585 | 0.547 | 0.495 | 0.525 | 0.59 | 0.708 | 0.535 | 0.846 | 0.47 | 0.638 | 0.856 | 0.925
22 | AGRTGYDNREI [BCL2_Y9] | 0.504 | 0.718 | 0.779 | 0.392 | 0.394 | 0.429 | 0.367 | 0.427 | 0.537 | 0.974 | 0.461 | 0.848 | 0.5 | 0.509 | 0.779 | 0.955
23 | AGTILYHAHLG [ASS1_Y291_D296G] | 0.483 | 0.543 | 0.737 | 0.534 | 0.633 | 0.863 | 0.61 | 0.564 | 0.549 | 0.727 | 0.517 | 0.816 | 0.495 | 0.625 | 0.819 | 1.07
24 | AHLLQYNHQVK [LGALS3_Y221_R224Q] | 0.503 | 0.401 | 0.631 | 0.503 | 0.505 | 0.521 | 0.508 | 0.706 | 0.459 | 0.474 | 0.579 | 0.517 | 0.583 | 0.545 | 0.706 | 0.9
25 | AIYWRYSKFFD [SH3PXD2B_Y45_R43W] | 0.466 | 0.645 | 0.794 | 0.982 | 0.681 | 0.421 | 0.886 | 1.49 | 0.97 | 1.1 | 0.57 | 1.07 | 0.526 | 0.804 | 1.3 | 1.05
26 | AKIDGYIISFR | 0.576 | 0.547 | 0.936 | 0.575 | 0.412 | 0.37 | 0.365 | 0.412 | 0.315 | 0.559 | 0.472 | 1.06 | 0.386 | 0.654 | 1.1 | 1.13
27 | AKKKMYSCKTK [AGXT_Y231_R233C] | 1.2 | 1.59 | 1.44 | 0.62 | 0.578 | 0.529 | 0.537 | 0.417 | 0.474 | 1.95 | 0.588 | 2.73 | 0.613 | 1.64 | 1.01 | 1.19
28 | ALEKTYNTFRS [B4GALNT2_Y538_YF] | 0.457 | 0.591 | 0.872 | 0.351 | 0.406 | 0.382 | 0.704 | 0.777 | 1.78 | 0.503 | 0.433 | 0.73 | 0.422 | 0.456 | 0.573 | 0.509
29 | ALEKTYNTYRS [B4GALNT2_Y538] | 0.448 | 0.612 | 0.819 | 0.336 | 0.349 | 0.312 | 0.438 | 0.517 | 0.925 | 0.433 | 0.391 | 0.497 | 0.35 | 0.439 | 0.568 | 0.658
30 | ALKKPYGVLYK [RPF2_Y59] | 1.38 | 2.38 | 1.54 | 0.544 | 0.4 | 0.397 | 0.675 | 0.503 | 0.707 | 0.675 | 0.455 | 0.72 | 0.5 | 0.516 | 0.643 | 0.775
31 | ALRHYYKLNII [ETV6_Y402] | 1.35 | 1.42 | 1.54 | 0.579 | 0.533 | 0.522 | 0.527 | 0.506 | 0.427 | 0.839 | 1.3 | 1.3 | 0.693 | 1.36 | 0.968 | 1.28
32 | ALVLQYLRVPL [F9_Y371] | 1.66 | 1.74 | 1.8 | 0.61 | 0.5 | 0.378 | 0.536 | 0.455 | 0.39 | 0.62 | 0.582 | 1.6 | 0.55 | 0.662 | 1.03 | 1.02
33 | ANFTEYVATRW [CDKL5_Y171_YF] | 0.523 | 0.595 | 0.806 | 0.834 | 0.922 | 0.49 | 0.523 | 0.57 | 0.466 | 0.682 | 0.707 | 0.781 | 0.515 | 0.814 | 0.977 | 0.947
34 | LSCVIYVILRK [PMP22_Y153_G150C] | 1.75 | 2.02 | 2.2 |  |  |  |  |  | 1.06 | 1.39 |  | 1.83 |  |  |  | 
